{
  "source": "patent US20180147231A1",
  "about": "“METHOD FOR TREATMENT AND PROGNOSIS OF COLORECTAL CANCER” (Oxford University Innovation Limited, priority 2015, published 2018)",
  "key": {"[1]": {"tested_on": "DLD-1 KRAS MUT cells (heterozygous KRAS G13D)", "assay": "Phosflow analysis of intracellular signaling, DLD-1 KRAS MUT", "assay_type": "cell-based", "settings": "30 min 10 ng/mL recombinant human IL-22", "procedure": "(§1) Therefore this isogenic pair differs only in KRAS mutation status and allows a clean system for comparison of KRAS-dependent IL-22 effects without inter-cell line mutational heterogeneity. (A) Representative FACS plots of IL-22RA1 expression and quantification of mean fluorescence intensity (WI) showing similar IL-22RA1 expression in the isogenic pair (4 experimental replicates). […] MTT was added 2 h prior to end of 48 h incubation. Formazan particles were dissolved in DMSO and absorbance was measured at 540 nm. Raw absorbances are blank corrected, normalized to a no treatment, and represented as a % viability compared to the no treatment condition. n=5 independent experiments with 3 experimental replicates. p values computed by non-parametric Mann-Whitney test comparing 5 FU alone to IL-22 pretreatment with 5 FU for each DLD-1 line.\nAdherent Colo205, T84, SW480, and DLD-1 cells were dissociated using StemPro® Accutase® (Life Technologies), filtered through […] filters, and counted by Trypan Blue exclusion. 5×10^5 cells of each line were stained with 5 μL Human IL-22 R alpha 1 Phycoerythrin MAb (Clone 305405) (R&D Systems) or […] isotype rat anti-mouse IgG1 PE (BD Biosciences) and incubated for 30 minutes at room temperature. Cells were washed with PBS, 0.1% BSA, 2 mM EDTA and acquired on the BD LSRII. Analysis was performed using FlowJo (Tree Star) software. For analysis of intracellular signaling pathways by phosflow, DLD-1 isogenic cells were plated in 6 well plates (1.5 million cells/well) in serum free RPMI and allowed to adhere overnight. DLD-1 cells were then stimulated or not for 30 minutes with increasing doses of recombinant human IL-22 (0.001 ng/mL-100 ng/mL). Cells were dissociated with TrypLE, fixed for 10 min at 37° C. with BD Cytofix Fixation Buffer. Cells were then permeabilized in BD Phosflow Perm Buffer III for 30 min on ice. […]"}, "[2]": {"tested_on": "T84 CRC cells (KRAS-mutant, IL22RA1 high)", "assay": "Primary sphere forming assay, T84 cells", "assay_type": "cell-based, human", "settings": "10 ng/mL IL-22 pre-treatment 48 h, spheres cultured 6 days", "procedure": "(A) Schematic representation of primary sphere forming assay workflow. Cells were pre-treated with 10 ng/mL IL-22 for 48 hours, filtered to single cells and 1000 cells/well were seeded into 96 well low-binding plates in serum-free media containing 1% methylcellulose, 20 ng/mL EGF, 20 ng/mL bFGF with and without 10 ng/mL IL-22. Four experimental replicates were seeded for each condition. Cultured spheres from (B) Colo205, T84 and SW480 cell lines for 6 days. (C) Bright field microscopy images (4×) of single wells 6 days after seeding (1 experiment representative of 4). (D) MTT assay to assess viability of spheres 6 days after seeding (n=3). (E) Bright field microscopy of T84 spheres (20×) 6 days after seeding. (F) Quantification of spheres after 6 days of culture using ImageJ. Data represent mean+/−SD of 3 independent experiments, each with 3 technical replicates per condition. *p<0.05, one-way ANOVA with Dunnett's post test for multiple comparisons.\nColo205, T84, and SW480 cells were pretreated for 48 h in 48 well plates with 10 ng/mL IL-22 (R&D Systems). Cells were filtered to single cells using […] filter and 1000 cells/well were seeded into 96 well low binding plates (Corning) in 1% methylcellulose in IMDM (R&D Systems), 20 ng/mL recombinant EGF (Sigma), 20 ng/mL recombinant basic FGF (Peprotech), lx insulin-transferrin selenite (ITS) (Sigma) in serum-free DMEM. […]"}, "[3]": {"tested_on": "DLD-1 KRAS WT cells (mutant KRAS allele knocked out)", "assay": "Phosflow analysis of intracellular signaling, DLD-1 KRAS WT", "assay_type": "cell-based", "settings": "30 min 10 ng/mL recombinant human IL-22", "procedure": "as §1\nAdherent Colo205, T84, SW480, and DLD-1 cells were dissociated using StemPro® Accutase® (Life Technologies), filtered through […] filters, and counted by Trypan Blue exclusion. 5×10^5 cells of each line were stained with 5 μL Human IL-22 R alpha 1 Phycoerythrin MAb (Clone 305405) (R&D Systems) or […] isotype rat anti-mouse IgG1 PE (BD Biosciences) and incubated for 30 minutes at room temperature. Cells were washed with PBS, 0.1% BSA, 2 mM EDTA and acquired on the BD LSRII. Analysis was performed using FlowJo (Tree Star) software. […]"}},
  "data": [
    {"molecule": "IL-22: recombinant human IL-22 (R&D Systems), IL-10 superfamily cytokine; human sequence SEQ ID NO: 5 (protein, listed as Homo sapiens) MAALQKSVSSFLMGTLATSCLLLLALLVQGGAAAPISSHCRLDKSNFQQPYITNRTFMLAKEASLADNNTDVRLIGEKLFHGVSMSERCYLMKQVLNFTLEEVLFPQSDRFQPYMQEVVPFLARLSNRLSTCHIEGDDLHIQRNVQKLKDTVKKLGESGEIKAIGELDLLFMSLRNACI", "values": [
      {"measurement": "Phosphorylated ERK1/2", "setting": "[1]", "result": "not IL-22 inducible"},
      {"measurement": "Phosphorylated S6", "setting": "[1]", "result": "IL-22 inducible phosphorylated S6"},
      {"measurement": "Phosphorylated STAT3", "setting": "[1]", "result": "identical extent of phosphorylated STAT3"},
      {"measurement": "Clonogenic outgrowth (sphere formation)", "setting": "[2]", "result": "enhances clonogenic outgrowth"},
      {"measurement": "Phosphorylated ERK1/2", "setting": "[3]", "result": "not IL-22 inducible"},
      {"measurement": "Phosphorylated STAT3", "setting": "[3]", "result": "identical extent of phosphorylated STAT3"}
    ]}
  ]
}
